Each block holds one binder with its values, some of them ahead of it. Ends that are not written are not given here.
Columns and labels:
DRα1-mMOG-35-55 [1] = molecular target: T1, DRα1-mMOG-35-55; experiment: competition ELISA (FIG. 4, left panel), competitor against rmCD74 on DRα1-mMOG-35-55
T1 construct: Coated onto ELISA plates at 1 µg/ml; also called DRa1mMOG-35-55; DRα1-MOG-35-55

[2] = molecular target: T2, human macrophage migration inhibitory factor (MIF) (human, UniProt P14174 2-115); experiment: competition ELISA, hMIF coated, competitor against rmCD74 (0.5 µg/ml), two-binding-site fit
T2 construct: Coated onto ELISA plates at 0.5 µg/ml; also called hMIF; human MIF
Protocol: (§1) The ability of α-helix 1 and α-helix 2 peptides to compete with MIF for binding to CD74 was tested. […] Wells were thoroughly washed with PBS/T20 and the mAb PIN.1/anti-mIgG1-HRP (at 0.5 μg/ml in 5% BSA/PBS each) was used to detect the remaining rmCD74 bound to MIF. This mAb recognizes an epitope located at the N-terminus of the protein. Color was developed after adding 50 μl of TMB for 5 minutes and the reaction was stopped with 50 μl of 0.1N HCl. Data was first normalized and then analyzed using GraphPad Prism software. IC₅₀ were calculated by fitting the curve to a competition model involving a two-binding site equation.

DRα1-mMOG-35-55 [3] = molecular target: T1, DRα1-mMOG-35-55; experiment: competition ELISA (FIG. 4), competitor against rmCD74 on DRα1mMOG-35-55
[4] = molecular target: T2, human macrophage migration inhibitory …; experiment: competition ELISA, hMIF coated, competitor against rmCD74
Protocol: as §1

RTL1000 = molecular target: T3, RTL1000; experiment: competition ELISA, RTL1000 coated, competitor against rmCD74 (50 nM), one-binding-site fit
T3 construct: Coated onto ELISA plates at 1 µg/ml; also called recombinant T cell receptor ligand
Protocol: (§2) Competition of peptides with rmCD74 for binding to RTL1000 or DRα1mMOG35-55 was also tested. Briefly, 50 μl of 1 μg/ml either RTL1000 or DRα1mMOG-35-55 were coated onto ELISA plates at 25° C. for 2 hours. […] Serial 1:2 dilutions of α-helix 1 or α-helix 2 (starting with a concentration of 66 μM, 50 μg/ml each) were prepared in rmCD74 (in BSA/PBS, 50 nM, 0.5 ug/ml) and added to the plate. Competition for the binding site was allowed for 3 hours at 25° C. and then unbound complexes were washed 4 times with PBS/T20. Remaining rmCD74 bound to RTL1000 or DRα1mMOG-35-55 was detected by the PIN.1/anti-mouse IgG1-HRP at 1 ul/ml of both in BSA/PBS for 1.5 hours at 25° C. and visualized by adding TMB substrate (50 μl, according to the manufacturer's instructions). Color development was stopped with 0.1N HCl and the plate was read at 450 nm in an ELISA plate reader. Data were normalized and fitted to a one-binding site model and competitor concentration was plotted against Absorbance at 450 nm to determine the IC₅₀ of each peptide competitor. All data were analyzed using Prism software (GraphPad).

DRα1-mMOG-35-55 [5] = molecular target: T1, DRα1-mMOG-35-55; experiment: competition ELISA (FIG. 4, right panel), competitor against rmCD74 on DRα1-mMOG-35-55
DRα1-mMOG-35-55 [6] = molecular target: T1, DRα1-mMOG-35-55; experiment: competition ELISA, DRα1mMOG-35-55 coated, competitor against rmCD74 (50 nM), one-binding-site fit
Protocol: as §2

IC50 (DRα1-mMOG-35-55 [1]): 4.71 µM
IC50 [2]: 3.74 µM
IC50 (DRα1-mMOG-35-55 [3]): 4.75 µM
fold increase of the blocking effect against α-helix 1 alone [4]: 10 fold
B1: mixture of synthetic peptides SEQ ID NO: 2 (α-helix 1) and SEQ ID NO: 4 (α-helix 2) (other)
peptide 1: TEDHVMHLLQNAD
peptide 2: KGSFPENLRHLKNTMET
modifications: also: mixture of two separate peptides, not covalently linked
notes: A mixture of two separate peptides that are not covalently linked; In the hMIF assay the starting concentration was 33 µM of each peptide, 66 µM in total; also called α-helix 1 plus α-helix 2; combined peptides

IC50 [2]: 41.8 µM
IC50 (RTL1000): 6.78 µM
LogIC50 (RTL1000): 0.831
IC50 (DRα1-mMOG-35-55 [5]): 35 µM
IC50 (DRα1-mMOG-35-55 [6]): 10.1 µM
LogIC50 (DRα1-mMOG-35-55 [6]): 1
IC50 (DRα1-mMOG-35-55 [3]): 35 µM
B2: CD74 α-helix 1 peptide (SEQ ID NO: 2) (peptide)
peptide: TEDHVMHLLQNAD
notes: also called human CD74 α-helix 1; alpha helix 1

IC50 [2]: 114 µM
IC50 (RTL1000): 34.3 µM
LogIC50 (RTL1000): 1.53
IC50 (DRα1-mMOG-35-55 [5]): 24.5 µM
IC50 (DRα1-mMOG-35-55 [6]): 167 µM
LogIC50 (DRα1-mMOG-35-55 [6]): 2.22
B3: CD74 α-helix 2 peptide (SEQ ID NO: 4) (peptide)
peptide: KGSFPENLRHLKNTMET
notes: also called human CD74 α-helix 2; alpha helix 2
